US20210024654A1 (AMPHIVENA THERAPEUTICS, published 2021)
Positions count from the first letter of the chain named.

B1: CD33/CD3 tandem diabody 05 (bispecific antibody)
chain: DIQMTQSPSSLSASVGDRVTITCRSSTGAVTTSNYANWVQQKPGKAPKGLIGGTNKRAPGVPARFSGSGSGTDFTLTISSLQPEDFATYYCALWYSNLWVFGQGTKVEIKGGSGGSQVQLVQSGAEVKKPGASVKVSCKASGYTFTSYDINWVRQAPGQGLEWMGWMNPNSGNTGFAQKFQGRVTMTRDTSTSTVYMELSSLRSEDTAVYYCARDRANTDYSFGMDVWGQGTLVTVSSGGSGGQSVLTQPPSASGTPGQRVTISCSGSRSNIGSNTVNWYQQLPGTAPKLLIYGNNQRPSGVPDRFSGSKSGTSASLAISGLQSEDEADYYCATWDDSLIGWVFGGGTKLTVLGGSGGSEVQLVESGGGLVQPGGSLRLSCAASGFTFSTYAMNWVRQAPGKGLEWVGRIRSKYNNYATYYADSVKDRFTISRDDSKNSLYLQMNSLKTEDTAVYYCARHGNFGNSYVSWFAYWGQGTLVTVSSAAAGSHHHHHH
B2: CD33/CD3 tandem diabody 06 (bispecific antibody)
chain: B1 chain with F223L
B3: CD33/CD3 tandem diabody 02 (bispecific antibody)
chain: DIQMTQSPSSLSASVGDRVTITCRSSTGAVTTSNYANWVQQKPGKAPKGLIGGTNKRAPGVPARFSGSGSGTDFTLTISSLQPEDFATYYCALWYSNLWVFGQGTKVEIKGGSGGSQVQLVQSGAEVKKPGASVKVSCKASGYTFTSYDINWVRQAPGQGLEWMGWMNPNSGNTGFAQKFQGRVTMTRDTSTSTVYMELSSLRSEDTAVYYCARDRAVTDYYYGMDVWGQGTLVTVSSGGSGQSVLTQPPSASGTPGQRVTISCSGSRSNIGSNTVNWYQQLPGTAPKLLIYGNNQRPSGVPDRFSGSKSGTSASLAISGLQSEDEADYYCATWDDSLIGWVFGGGTKLTVLGGSGGSEVQLVESGGGLVQPGGSLRLSCAASGFTFSTYAMNWVRQAPGKGLEWVGRIRSKYNNYATYYADSVKDRFTISRDDSKNSLYLQMNSLKTEDTAVYYCARHGNFGNSYVSWFAYWGQGTLVTVSSAAAGSHHHHHH
B4: CD33/CD3 tandem diabody 04 (bispecific antibody)
chain: B3 chain with V218N, Y222S, Y223L
B5: CD33/CD3 tandem diabody 03 (bispecific antibody)
chain: B3 chain with V218N, Y222S, Y223F
B6: CD33/CD3 tandem diabody 23 (bispecific antibody)
chain: DIQMTQSPSSLSASVGDRVTITCRSSTGAVTTSNYANWVQQKPGKAPKGLIGGTNKRAPGVPSRFSGSLIGTDFTLTISSLQPEDFATYYCALWYSNLWVFGQGTKVEIKGGSGGSQVQLVQSGAEVKKPGSSVKVSCKASGGTFSSYGISWVRQAPGQGLEWMGGIIPIFGSAHYAQKFQGRVTITADESTSTAYMELSSLRSEDTAVYYCAREYYYDSSEWAFDIWGQGTLVTVSSGGSGQSVLTQPPSASGTPGQRVTISCSGSSSNIGSNTVKWYQQLPGTAPKLLIYSNNQRSSGVPDRFSGSKSGSSASLAISGLQSEDEADYYCAAWDDSLNGYVFGGGTKLTVLGGSGGSEVQLVESGGGLVQPGGSLRLSCAASGFTFSTYAMNWVRQAPGKGLEWVGRIRSKYNNYATYYADSVKDRFTISRDDSKNSLYLQMNSLKTEDTAVYYCARHGNFGNSYVSWFAYWGQGTLVTVSS
B7: CD33/CD3 tandem diabody 08 (bispecific antibody)
chain: QSVLTQPPSASGTPGQRVTISCSGSRSNIGSNTVNWYQQLPGTAPKLLIYGNNQRPSGVPDRFSGSKSGSSASLAISGLQSEDEADYYCATWDDSLIGWVFGGGTKLTVLGGSGGSEVQLVESGGGLVQPGGSLRLSCAASGFTFSTYAMNWVRQAPGKGLEWVGRIRSKYNNYATYYADSVKDRFTISRDDSKNSLYLQMNSLKTEDTAVYYCARHGNFGNSYVSYFAYWGQGTLVTVSSGGSGGSDIQMTQSPSSLSASVGDRVTITCRSSTGAVTTSNYANWVQQKPGKAPKALIGGTNKRAPGVPSRFSGSLIGDKATLTISSLQPEDFATYYCALWYSNLWVFGQGTKVEIKGGSGGSQVQLVQSGAEVKKPGASVKVSCKASGYTFTSYDINWVRQAPGQGLEWMGWMNPNSGNTGFAQKFQGRVTMTRDTSTSTVYMELSSLRSEDTAVYYCARDRANTDFSYGMDVWGQGTLVTVSSAAAGSHHHHHH
B8: CD33/CD3 tandem diabody 07 (bispecific antibody)
chain: DIQMTQSPSSLSASVGDRVTITCRSSTGAVTTSNYANWVQQKPGKAPKALIGGTNKRAPGVPSRFSGSLIGDKATLTISSLQPEDFATYYCALWYSNLWVFGQGTKVEIKGGSGGSQVQLQESGGGVVQPGRSLRLSCAASGFSFSNYGIHWVRQAPGKGLEWVALISYDGNKKFYADSVKGRFAISRDTSKNTVDLQMTSLRPEDTAVYYCAKDRLESAAFDYWGQGTLVTVSSGGSGGSSYELTQPPSVSVAPGQTAMITCGGNNIGSTTVHWYQQKPGQAPVLVVYDDNERPSGIPERFSGSNSGSTATLTINRVEAGDEADYYCQVWDSGSDHVVFGGGTKLTVLGGSGGSEVQLVESGGGLVQPGGSLRLSCAASGFTFSTYAMNWVRQAPGKGLEWVGRIRSKYNNYATYYADSVKDRFTISRDDSKNSLYLQMNSLKTEDTAVYYCARHGNFGNSYVSYFAYWGQGTLVTVSSAAAGSHHHHHH
B9: CD33/CD3 tandem diabody 22 (bispecific antibody)
chain: DIQMTQSPSSLSASVGDRVTITCRSSTGAVTTSNYANWVQQKPGKAPKALIGGTNKRAPGVPSRFSGSLIGDKATLTISSLQPEDFATYYCALWYSNLWVFGQGTKVEIKGGSGGSQVQLVQSGAEVKKPGSSVKVSCKASGGTFSSYGISWVRQAPGQGLEWMGGIIPIFGSAHYAQKFQGRVTITADESTSTAYMELSSLRSEDTAVYYCAREYYYDSSEWAFDIWGQGTLVTVSSGGSGQSVLTQPPSASGTPGQRVTISCSGSSSNIGSNTVKWYQQLPGTAPKLLIYSNNQRSSGVPDRFSGSKSGSSASLAISGLQSEDEADYYCAAWDDSLNGYVFGGGTKLTVLGGSGGSEVQLVESGGGLVQPGGSLRLSCAASGFTFSTYAMNWVRQAPGKGLEWVGRIRSKYNNYATYYADSVKDRFTISRDDSKNSLYLQMNSLKTEDTAVYYCARHGNFGNSYVSYFAYWGQGTLVTVSSAAAGSHHHHHH
B10: CD33/CD3 tandem diabody 24 (bispecific antibody)
chain: DIQMTQSPSSLSASVGDRVTITCRSSTGAVTTSNYANWVQQKPGKAPKALIGGTNKRAPGVPSRFSGSLIGDKATLTISSLQPEDFATYYCALWYSNLWVFGQGTKVEIKGGSGGSQVQLVQSGAEVKKPGSSVKVSCKASGGTFDSYAISWVRQAPGQGLEWMGGIIPIFGSAHYSQKFQGRVTITADESTSTAYMELSSLRSEDTAVYYCAREYYYDSSEWAFDIWGQGTLVTVSSGGSGQSVLTQPPSASGTPGQRVTISCSGSSSNIGDNVVNWYQQLPGTAPKLLIYSTNKRPSGVPDRFSGSKSGSSASLAISGLQSEDEADYYCAAWDDSLSAYVFGGGTKLTVLGGSGGSEVQLVESGGGLVQPGGSLRLSCAASGFTFSTYAMNWVRQAPGKGLEWVGRIRSKYNNYATYYADSVKDRFTISRDDSKNSLYLQMNSLKTEDTAVYYCARHGNFGNSYVSYFAYWGQGTLVTVSSAAAGSHHHHHH

Each binder was assayed against cynomolgus CD33 (cynomolgus) (assay: flow cytometry KDs on CHO cells, cyno CD33 / human CD33).

Point of comparison: B6, KD ratio CynoCD33/huCD33 1.9. Against it:
- B1 — lower, 0.8
- B2 — lower, 0.8
- B3 — lower, 1.1
- B4 — lower, 1.1
- B5 — lower, 0.6
- B7 — lower, 0.6
- B8 — higher, 45.8
- B9 — lower, 0.6
- B10 — lower, 1.8
